From patent US20250277029A1 (Amgen, published 2025) come the findings set out here.

Assay [1] concerns the target T1, GFP-fused huCB1-SMALP (human, UniProt P21554 1-472).
T1 construct: Human CB1 fused to GFP in styrene maleic acid lipoparticles, made as in Luna et al. 2018; also called huCB1-GFP-SMALP; GFP-tagged huCB1-SMALP; not shown: GFP fused to huCB1
Kind of assay: flow cytometry, yeast-displayed Fab, 10 nM CB1 SMALP. A general note: In flow cytometry, cells or beads pass a laser one at a time.

A further assay has as its target T2, Empty ND.
T2 construct: It carries no receptor; the scaffold is its only protein; also called empty nanodisc
Put plainly: flow cytometry, yeast-displayed Fab, 50 nM Empty ND.

In a further assay the target is T3, His-tagged huCB1-ND (human, UniProt P21554 99-414, limits assumed).
T3 construct: The real construct may be truncated or engineered; also called CB1-nanodisc; not shown: histidine purification tag
T3 sequence (P21554 99-414 limits assumed): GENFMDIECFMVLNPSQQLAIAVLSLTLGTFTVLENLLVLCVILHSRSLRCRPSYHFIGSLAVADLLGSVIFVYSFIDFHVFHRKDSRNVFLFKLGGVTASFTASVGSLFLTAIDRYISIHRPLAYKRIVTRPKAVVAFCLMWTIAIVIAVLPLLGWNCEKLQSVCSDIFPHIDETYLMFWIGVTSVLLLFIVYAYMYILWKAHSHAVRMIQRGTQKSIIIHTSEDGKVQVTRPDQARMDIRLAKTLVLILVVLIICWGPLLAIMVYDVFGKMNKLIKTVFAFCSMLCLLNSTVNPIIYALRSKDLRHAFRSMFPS
Kind of assay: flow cytometry, yeast-displayed Fab, 0.5 nM CB1 ND.

Assay [2] deals with T1, GFP-fused huCB1-SMALP. Put plainly: flow cytometry, yeast-displayed Fab, 5 nM CB1 SMALP.
For assay [3], the target named is human cannabinoid receptor 1 (huCB1), full length, expressed on cells (human, UniProt P21554 1-472). Put plainly: cell-based or functional assay.
human cannabinoid receptor 1 (huCB1), full length, expressed on cells, sequence (P21554 whole entry): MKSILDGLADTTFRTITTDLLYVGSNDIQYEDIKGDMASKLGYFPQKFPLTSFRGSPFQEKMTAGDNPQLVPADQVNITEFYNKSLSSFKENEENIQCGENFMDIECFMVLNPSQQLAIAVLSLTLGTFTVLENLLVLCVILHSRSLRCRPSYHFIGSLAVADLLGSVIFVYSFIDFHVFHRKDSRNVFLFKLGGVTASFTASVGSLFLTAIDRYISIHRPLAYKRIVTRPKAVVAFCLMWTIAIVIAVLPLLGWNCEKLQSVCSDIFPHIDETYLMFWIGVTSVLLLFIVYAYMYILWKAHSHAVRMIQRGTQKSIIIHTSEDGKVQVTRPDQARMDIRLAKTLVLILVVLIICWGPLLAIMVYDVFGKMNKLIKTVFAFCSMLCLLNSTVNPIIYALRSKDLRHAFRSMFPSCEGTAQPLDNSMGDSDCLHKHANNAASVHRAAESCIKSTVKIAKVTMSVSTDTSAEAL

T1 sequence (P21554 whole entry, the tested form may be a part): as the sequence (P21554 whole entry) above

B1: LIBC674153-1 (Fab on yeast) (Fab, V domains shown)
VH: QVQLQESGPGLVKPSQTLSLTCTVSGGSIRRGGDYWSWIRQHPGKGLEWIGHVYYTGSTAYNPSFRGRVRISVNTYKNQFSLKLSSVTAADTAVYYCARGYDTSGYSYYYYGLDVWGQGTTVTVSS
VL: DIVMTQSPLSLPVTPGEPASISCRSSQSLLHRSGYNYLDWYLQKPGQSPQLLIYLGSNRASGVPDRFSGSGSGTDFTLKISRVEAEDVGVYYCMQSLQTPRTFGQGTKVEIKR
notes: Clone of the Fab-yeast libraries
For the molecule B1, the “relative binding fold change compared to LIBC523797-1(Fab)” value (shortened to “relative binding fold change”) with GFP-fused huCB1-SMALP [1] came to 2.62 fold; with Empty ND, 0.33 fold; with His-tagged huCB1-ND, 1.83 fold; in the assay with GFP-fused huCB1-SMALP [2], 1.35 fold.

B2: LIBC673948-1 (Fab on yeast) (Fab, V domains shown)
VH: QVQLQESGPGLVKPSQTLSLTCTVSGGSIRRGGDYWSWIRQHPGKGLEWIGHIYYTGSTKYNPSLKNRVRISVNTYKNQFSLKLSSVTAADTAVYYCARGYDVSGYSYYYYGLDVWGQGTTVTVSS
VL: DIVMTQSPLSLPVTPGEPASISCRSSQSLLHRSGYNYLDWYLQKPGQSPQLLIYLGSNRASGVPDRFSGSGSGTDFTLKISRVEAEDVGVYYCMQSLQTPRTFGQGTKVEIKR
notes: as for B1
Consider B2, for which the “relative binding fold change” value amounted to 2.46 fold with GFP-fused huCB1-SMALP [1], 0.48 fold with Empty ND, 0.64 fold in the assay with His-tagged huCB1-ND and 1.37 fold in the assay with GFP-fused huCB1-SMALP [2].

B3: LIBC529593-1 (Fab) (Fab, V domains shown)
VH: QVQLQESGPGLVKPSQTLSLTCTVSGGSIRRGGDYWSWIRQHPGKGLEWIGHIYYSGSTNYNPSLRSRVRISVDTSKNQFSLKLSSVTAADTAVYYCARDYDILTGYSYYYYGLDVWGQGTTVTVSS
VL: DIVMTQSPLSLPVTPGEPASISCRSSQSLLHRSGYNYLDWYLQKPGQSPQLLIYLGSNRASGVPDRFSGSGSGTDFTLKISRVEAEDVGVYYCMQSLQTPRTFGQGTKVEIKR
Turning to B3, the “relative binding fold change” value with GFP-fused huCB1-SMALP [1] amounted to 1.06 fold; with Empty ND, 1.14 fold; with His-tagged huCB1-ND it was 0.38 fold; in the assay with GFP-fused huCB1-SMALP [2], 1.42 fold.

B4: LIBC528131-1 (antibody, V domains shown)
VH: QVQLQESGPGLVKPSQTLSLTCTVSGGSIRRGGDYWSWIRQHPGKGLEWIGHIYQTGQTAYNPNLEGRATISVNTYKNQFSLKLSSVTAADTAVYYCARDYDILTGYSYYYYGMDVWGQGTTVTVSS
VL: EIVLTQSPATLSLSPGERATLSCRASQSVSSYLGWYQQKPGQAPRLLIYGASSRATGIPDRFSGSGSGTDFTLTISRLEPEDFAVYYCQQYGSSPRTFGQGTKVEIKR
Take B4: in assay [3], the “Mean IC50 (nM), cAMP antagonist assay” value came out at 4.23 nM; the “Mean IC50, -fold vs Rimo” value was determined as 1.41 fold vs Rimonabant; the “n = 1 IC50 (nM), cAMP antagonist assay” value was determined as 6.63 nM; the “n = 1 IC50, -fold vs Rimo” value worked out at 1.57 fold vs Rimonabant. In assay [3], the “n = 2 IC50 (nM), cAMP antagonist assay” value stood at 1.83 nM and the “n = 2 IC50, -fold vs Rimo” value was 1.02 fold vs Rimonabant.

B5: LIBC527968-1 (antibody, V domains shown)
VH: QVQLQESGPGLVKPSQTLSLTCTVSGGSIRRGGDYWSWIRQHPGKGLEWIGHIYQSGSTKYNPSFKDRATISVNTYKNQFSLKLSSVTAADTAVYYCARDYDILTGYSYYYYGMDVWGQGTTVTVSS
VL: DIQLTQSPSTLSASVGDRVTITCRASQSISNYLNWYQQKPGKAPKLLIYAASSLHSGVPSRFSGSGSGTDFTLTISSLQPEDFASYYCQQYQSYPLTFGQGTKVEIKR
With B5, in assay [3], the “Mean IC50 (nM), cAMP antagonist assay” value was 4.03 nM; the “Mean IC50, -fold vs Rimo” value is 1.34 fold vs Rimonabant; the “n = 1 IC50 (nM), cAMP antagonist assay” value amounted to 6.1 nM; the “n = 1 IC50, -fold vs Rimo” value was 1.45 fold vs Rimonabant. Also, in assay [3], the “n = 2 IC50 (nM), cAMP antagonist assay” value was 1.95 nM and the “n = 2 IC50, -fold vs Rimo” value stood at 1.09 fold vs Rimonabant.

B6: LIBC527912-1 (antibody, V domains shown)
VH: QVQLQESGPGLVKPSQTLSLTCTVSGGSIRRGGDYWSWIRQHPGKGLEWIGYIYQTGQTKYNPNFEGRATISVNTYKNQFSLKLSSVTAADTAVYYCARDYDILTGYSYYYYGMDVWGQGTTVTVSS
VL: DIQLTQSPSSLSASVGDRVTITCRASQSISSYLNWYQQKPGKAPKLLIYAASSLRSGVPSRFSGSGSGTDFTLTISSLQPEDFATYYCQQYSNYPLTFGGGTRVEIKR
As for B6, in assay [3], the “Mean IC50 (nM), cAMP antagonist assay” value came to 3.95 nM; the “Mean IC50, -fold vs Rimo” value amounted to 1.32 fold vs Rimonabant; the “n = 1 IC50 (nM), cAMP antagonist assay” value came to 5.91 nM; the “n = 1 IC50, -fold vs Rimo” value came out at 1.4 fold vs Rimonabant. For the same molecule, in assay [3], the “n = 2 IC50 (nM), cAMP antagonist assay” value came out at 1.99 nM and the “n = 2 IC50, -fold vs Rimo” value turned out to be 1.11 fold vs Rimonabant.

B7: LIBC527827-1 (antibody, V domains shown)
VH: QVQLQESGPGLVKPSQTLSLTCTVSGGSIRRGGDYWGWIRQHPGKGLEWIGHVYQSGQTAYNPKFENRATISVKTYKNQFSLKLSSVTAADTAVYYCARNYDTLTGHSYYYYGMDVWGQGTTVTVSS
VL: DIQMTQSPSTLSASVGDRVTITCRASQSISNYLNWYQQKPGKAPKLLIYAASSLHSGVPSRFSGSGSGTDFTLTISSLQPEDFASYYCQQYQSYPLTFGQGTKVEIKR
Consider B7, for which, in assay [3], the “Mean IC50 (nM), cAMP antagonist assay” value turned out to be 23.7 nM; the “Mean IC50, -fold vs Rimo” value was 7.89 fold vs Rimonabant; the “n = 1 IC50 (nM), cAMP antagonist assay” value worked out at 32 nM; the “n = 1 IC50, -fold vs Rimo” value turned out to be 7.6 fold vs Rimonabant. Besides, in assay [3], the “n = 2 IC50 (nM), cAMP antagonist assay” value was found to be 15.3 nM and the “n = 2 IC50, -fold vs Rimo” value turned out to be 8.54 fold vs Rimonabant.

B8: LIBC528141-1 (antibody, V domains shown)
VH: QVQLQESGPGLVKPSQTLSLTCTVSGGSIRRGGDYWSWIRQHPGKGLEWIGHVYQTGSTKYNPRFKGRATISVNTYKNQFSLKLSSVTAADTAVYYCARDYDILTGYSYYYYGMDVWGQGTTVTVSS
VL: DIQLTQSPSTLSASVGDRVTITCRASQSISNYLNWYQQKPGKAPKLLIYAASSLHSGVPSRFSGSGSGTDFTLTISSLQPEDFASYYCQQYQSYPLTFGQGTKVEIKR
Consider B8, for which, in assay [3], the “Mean IC50 (nM), cAMP antagonist assay” value is 4.05 nM; the “Mean IC50, -fold vs Rimo” value came to 1.35 fold vs Rimonabant; the “n = 1 IC50 (nM), cAMP antagonist assay” value was 6.26 nM; the “n = 1 IC50, -fold vs Rimo” value is 1.49 fold vs Rimonabant. Also, in assay [3], the “n = 2 IC50 (nM), cAMP antagonist assay” value came to 1.84 nM and the “n = 2 IC50, -fold vs Rimo” value is 1.03 fold vs Rimonabant.

B9: LIBC528169-1 (antibody, V domains shown)
VH: QVQLQESGPGLVKPSQTLSLTCTVSGGSIRRGGDYWSWIRQHPGKGLEWIGHIYQSGSTKYNPSFEDRATISVNTYKNQFSLKLSSVTAADTAVYYCARDYDILTGYSYYYYGMDVWGQGTTVTVSS
VL: DIQLTQSPSTLSASVGDRVTITCRASQSISNYLNWYQQKPGKAPKLLIYAASSLHSGVPSRFSGSGSGTDFTLTISSLQPEDFASYYCQQYQSYPLTFGQGTKVEIKR
Take B9: in assay [3], the “Mean IC50 (nM), cAMP antagonist assay” value came out at 7.81 nM; the “Mean IC50, -fold vs Rimo” value came out at 2.6 fold vs Rimonabant; the “n = 1 IC50 (nM), cAMP antagonist assay” value was determined as 12.3 nM; the “n = 1 IC50, -fold vs Rimo” value is 2.92 fold vs Rimonabant. Moreover, in assay [3], the “n = 2 IC50 (nM), cAMP antagonist assay” value was 3.31 nM and the “n = 2 IC50, -fold vs Rimo” value worked out at 1.85 fold vs Rimonabant.

B10: LIBC528148-1 (antibody, V domains shown)
VH: QVQLQESGPGLVKPSQTLSLTCTVSGGSIRRGGDYWSWIRQHPGKGLEWIGHIYQSGQTKYNPKLKGRATISVDTYKNQFSLKLSSVTAADTAVYYCARDYDILTGYSYYYYGMDVWGQGTTVTVSS
VL: DIQLTQSPSTLSASVGDRVTITCRASQSISNYLNWYQQKPGKAPKLLIYAASSLHSGVPSRFSGSGSGTDFTLTISSLQPEDFASYYCQQYQSYPLTFGQGTKVEIKR
Regarding B10, in assay [3], the “Mean IC50 (nM), cAMP antagonist assay” value was 5.95 nM and the “n = 1 IC50 (nM), cAMP antagonist assay” value is 9.1 nM.

B11: LIBC527906-1 (antibody, V domains shown)
VH: QVQLQESGPGLVKPSQTLSLTCTVSGGSIRRGGDYWGWIRQHPGKGLEWIGHIYQTGSTNYNPNFKDRATISVDTYKNQFSLKLSSVTAADTAVYYCARDYDILTGYSYYYYGMDVWGQGTTVTVSS
VL: DIQLTQSPSTLSASVGDRVTITCRASQSISNYLNWYQQKPGKAPKLLIYAASSLHSGVPSRFSGSGSGTDFTLTISSLQPEDFASYYCQQYQSYPLTFGQGTKVEIKR
Regarding B11, in assay [3], the “Mean IC50 (nM), cAMP antagonist assay” value turned out to be 5.15 nM; the “Mean IC50, -fold vs Rimo” value turned out to be 1.72 fold vs Rimonabant; the “n = 1 IC50 (nM), cAMP antagonist assay” value came to 7.66 nM; the “n = 1 IC50, -fold vs Rimo” value was determined as 1.82 fold vs Rimonabant. Also, in assay [3], the “n = 2 IC50 (nM), cAMP antagonist assay” value is 2.64 nM and the “n = 2 IC50, -fold vs Rimo” value was 1.48 fold vs Rimonabant.
